Reference: patent US20180355059A1 (PHARMAEXPLORER, published 2018)

Experiments:
[1] = biological target: T1, recombinant human PCSK9-His protein (Immunogen A) (human, UniProt Q8NBP7 31-692, limits assumed, biotinylated in the ELISA assays); assay: ELISA; antibody 6.67 nM
T1 construct: also called hPCSK9-His; His-tagged hPCSK9; not shown: His tag

[2] = biological target: T1, recombinant human PCSK9-His protein …; assay: ELISA; antibody 0.0067 nM
[3] = biological target: T2, recombinant cyno monkey PCSK9 protein (cyno monkey, UniProt A8T666 31-692 (rhesus entry), limits assumed, biotinylated in the ELISA assays); assay: ELISA; antibody 0.0067 nM
T2 construct: also called cyno PCSK9; Cyno Monkey PCSK9-His

[4] = biological target: T1, recombinant human PCSK9-His protein …; assay: ELISA of PCSK9 binding to LDLR ECD; antibody 0.06 nM
[5] = biological target: T2, recombinant cyno monkey PCSK9 protein; assay: ELISA; antibody 0 nM
[6] = biological target: T1, recombinant human PCSK9-His protein …; assay: ELISA; antibody 0.67 nM
[7] = biological target: T1, recombinant human PCSK9-His protein …; assay: ELISA of PCSK9 binding to LDLR ECD; antibody 0.32 nM
[8] = biological target: T1, recombinant human PCSK9-His protein …; assay: ELISA; antibody 66.67 nM
[9] = biological target: T1, recombinant human PCSK9-His protein …; assay: ELISA of PCSK9 binding to LDLR ECD; antibody 200 nM
[10] = biological target: T2, recombinant cyno monkey PCSK9 protein; assay: ELISA; antibody 0.67 nM
[11] = biological target: T1, recombinant human PCSK9-His protein …; assay: ELISA of PCSK9 binding to LDLR ECD; antibody 1.6 nM
[12] = biological target: T1, recombinant human PCSK9-His protein …; assay: ELISA of PCSK9 binding to LDLR ECD; antibody 40 nM
[13] = biological target: T1, recombinant human PCSK9-His protein …; assay: ELISA; antibody 0.067 nM
[14] = biological target: T1, recombinant human PCSK9-His protein …; assay: BLI, Octet Red 96; antibody on AHC sensor
Experimental: Dissociation constants were determined by Octed red 96 (Fortiebio). The detailed operation and methods were followed according to the specifications of the instrument provided by the manufacturer. Briefly, an AHC sensor (Anti-human Fc sensor, Fortiebio) was used for the affinity determination. The anti-PCSK9 antibody was diluted to 10 ug/mL in PBS buffer (pH7.4) containing 0.1% (w/w) BSA and 0.02% (v/v) Tween 20 and incubated with the AHC sensor. […] The reaction mixture was further incubated in PBS buffer (pH7.4) containing 0.1% (v/w) BSA and 0.02% (v/v) Tween 20 at 30° C. for 5 minutes.

[15] = biological target: T2, recombinant cyno monkey PCSK9 protein; assay: ELISA; antibody 0.00067 nM
[16] = biological target: T1, recombinant human PCSK9-His protein …; assay: ELISA; antibody 0.00067 nM
[17] = biological target: T1, recombinant human PCSK9-His protein …; assay: ELISA of PCSK9 binding to LDLR ECD; antibody 8 nM
[18] = biological target: T1, recombinant human PCSK9-His protein …; assay: ELISA of PCSK9 binding to LDLR ECD; antibody 0.01 nM
[19] = biological target: T2, recombinant cyno monkey PCSK9 protein; assay: ELISA; antibody 0.000067 nM
[20] = biological target: T1, recombinant human PCSK9-His protein …; assay: ELISA; antibody 0 nM
[21] = biological target: T1, recombinant human PCSK9-His protein …; assay: ELISA; antibody 0.000067 nM
[22] = biological target: T1, recombinant human PCSK9-His protein …; assay: ELISA of PCSK9 binding to LDLR ECD; antibody 0 nM
[23] = biological target: T2, recombinant cyno monkey PCSK9 protein; assay: ELISA; antibody 66.67 nM
[24] = biological target: T2, recombinant cyno monkey PCSK9 protein; assay: ELISA; antibody 0.067 nM
[25] = biological target: T2, recombinant cyno monkey PCSK9 protein; assay: ELISA; antibody 6.67 nM
[26] = biological target: T1, recombinant human PCSK9-His protein …; assay: SPR, Biacore T200; antibody captured by anti-human Fc
Experimental: Anti-human Fc IgG was immobilized on flow cells 1 and 2: HBS-EP+(10 mM HEPES, 150 mM NaCl, 3 mM EDTA, 0.05% P20, pH 7.4) was used as running buffer, and the immobilization of anti-human Fc IgG was carried out using the immobilization wizard template. Flow cells 1 and 2 of a Series S CM5 sensor chip were activated with freshly-mixed 50 mmol/L NHS and 200 mmol/L EDC. 20 ug/mL of anti-human Fc IgG diluted in 10 mM NaAC (pH 4.5) was injected into the activated flow cells 1 and 2. The remaining active coupling sites were blocked with 1M ethanolamine.
KD measurements were carried out with HBS-EP+ as the running buffer. Each antibody was injected over the CM5 sensor flow cell 2 with a flow rate of 10 uL/min to reach response 230 RU. […] Buffer flow was maintained for 400 seconds for dissociation measurements (30 uL/min). To remove the tested antibody from the surface, 10 mM glycine-HCl pH 1.5 was injected for 20 seconds (30 ulJmin). Flow cell 1 was used as reference flow cell. […] The KD value for each antibody was evaluated using Biacore T200 evaluation software 1.0, and the data was fit with a 1:1 binding model.

T2 sequence (A8T666 31-692 limits assumed): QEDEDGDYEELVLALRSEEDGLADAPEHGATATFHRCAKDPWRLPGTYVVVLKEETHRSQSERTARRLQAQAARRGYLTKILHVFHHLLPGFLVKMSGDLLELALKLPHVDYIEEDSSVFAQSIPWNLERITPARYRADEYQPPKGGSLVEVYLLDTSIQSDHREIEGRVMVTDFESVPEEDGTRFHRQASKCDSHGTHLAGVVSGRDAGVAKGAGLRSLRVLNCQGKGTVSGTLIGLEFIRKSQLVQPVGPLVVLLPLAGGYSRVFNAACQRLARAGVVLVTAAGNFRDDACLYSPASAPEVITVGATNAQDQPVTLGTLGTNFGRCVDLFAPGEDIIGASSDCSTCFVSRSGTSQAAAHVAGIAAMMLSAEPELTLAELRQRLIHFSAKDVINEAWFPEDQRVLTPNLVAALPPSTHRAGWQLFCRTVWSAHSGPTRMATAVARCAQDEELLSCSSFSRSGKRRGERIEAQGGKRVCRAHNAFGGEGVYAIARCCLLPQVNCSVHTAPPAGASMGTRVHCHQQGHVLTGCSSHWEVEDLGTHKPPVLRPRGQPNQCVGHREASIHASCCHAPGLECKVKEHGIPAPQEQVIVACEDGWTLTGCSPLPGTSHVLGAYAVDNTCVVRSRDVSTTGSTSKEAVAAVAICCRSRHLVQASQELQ

Row | Binder | OD450 nm [1] [OD450 nm] | OD450 nm [2] [OD450 nm] | OD450 nm [3] [OD450 nm] | OD450 nm [4] [OD450 nm] | OD450 nm [5] [OD450 nm] | OD450 nm [6] [OD450 nm] | OD450 nm [7] [OD450 nm] | OD450 nm [8] [OD450 nm] | OD450 nm [9] [OD450 nm] | OD450 nm [10] [OD450 nm] | OD450 nm [11] [OD450 nm] | OD450 nm [12] [OD450 nm] | OD450 nm [13] [OD450 nm] | Kd [14] [nM] | OD450 nm [15] [OD450 nm] | OD450 nm [16] [OD450 nm] | OD450 nm [17] [OD450 nm] | OD450 nm [18] [OD450 nm] | OD450 nm [19] [OD450 nm] | OD450 nm [20] [OD450 nm] | also measured
1 | 74C10A8, fully human anti-PCSK9 antibody (antibody, human IgG1, V domains shown) VH: QVQLQESGPGLVKPSETLSLTCSVSGGSINTYYWSWIRQPPGKGLEWIGYIYYSGSTNYNPSLKSRVTISVDTSKNQFSLKLTSVTAADTAVYYCARERFTMVRGVMMDYYYYGMDVWGQGTTVTVSS VL: DIQLTQSPSFLSASVGDRVTITCRASQGISSYLAWYQQKPGKAPKLLIYAASTLQSGVPSRFSGSGSGTEFTLTISSLQPEDFATYYCQQLNSYPRTFGQGTKVEIK | 3.04 | 0.23 | 0.11 | 2.28 | 0.06 | 3 | 2.32 | 3.04 | 1.41 | 2.1 | 2.19 | 1.43 | 1.52 | 14.5 | 0.06 | 0.08 | 1.76 | 2.31 | 0.13 | 0.06 | OD450 nm [21]: 0.06 OD450 nm; OD450 nm [22]: 2.4 OD450 nm; OD450 nm [23]: 2.86 OD450 nm; OD450 nm [24]: 0.48 OD450 nm; OD450 nm [25]: 2.73 OD450 nm
2 | 96F8C6, fully human anti-PCSK9 antibody (antibody, human IgG1, V domains shown, also called 98F8C6) VH: EVQLVESGGGLVQPGGSLRLSCAASGITFSSYWMSWVRQAPGKGLEWVANIKQDGSEKYYVDSVKGRFTISRDIAKNSLYLQMNSLRAEDTAVYYCARDRGTYYYGSGSYNYYYYGMDVWGQGTTVTVSS VL: not shown | 3.1 | 0.25 | 0.31 | 2.43 | 0.06 | 3.09 | 2.45 | 3.06 | 2.4 | 2.99 | 2.4 | 2.38 | 1.65 | 3.63 | 0.09 | 0.08 | 2.38 | 2.38 | 0.08 | 0.06 | OD450 nm [21]: 0.06 OD450 nm; OD450 nm [22]: 2.4 OD450 nm; OD450 nm [23]: 2.97 OD450 nm; Kd [26]: 2.33 nM; OD450 nm [24]: 1.86 OD450 nm; OD450 nm [25]: 3 OD450 nm

Continued, in another order:

Row | OD450 nm [1] [OD450 nm] | OD450 nm [2] [OD450 nm] | OD450 nm [3] [OD450 nm] | OD450 nm [4] [OD450 nm] | OD450 nm [5] [OD450 nm] | OD450 nm [6] [OD450 nm] | OD450 nm [7] [OD450 nm] | OD450 nm [8] [OD450 nm] | OD450 nm [9] [OD450 nm] | OD450 nm [10] [OD450 nm] | OD450 nm [11] [OD450 nm] | OD450 nm [12] [OD450 nm] | OD450 nm [13] [OD450 nm] | Kd [14] [nM] | OD450 nm [15] [OD450 nm] | OD450 nm [16] [OD450 nm] | OD450 nm [17] [OD450 nm] | OD450 nm [18] [OD450 nm] | OD450 nm [19] [OD450 nm] | OD450 nm [20] [OD450 nm] | Binder | also measured
3 | 3.06 | 0.26 | 0.29 | 2.31 | 0.06 | 3.05 | 2.28 | 3.04 | 1.29 | 3 | 2.16 | 1.35 | 1.7 | 0.63 | 0.08 | 0.08 | 1.57 | 2.33 | 0.08 | 0.06 | 139G1C5, fully human anti-PCSK9 antibody (antibody, human IgG1, V domains shown) VH: QVQLQESGPGLVKPSGTLSLTCAVSGGSISRNNWWSWVRQPPGKGLEWIGEIYHSGSTNYNPSLKSRVTISVDKSKNQFSLKLSSVTAADTAVYYCARDLLGIGLDYWGQGTLVTVSS VL: EFVLTQSPATLSLSPGERAILSCRASQSFSSYIAWYQQKPGQAPRLLIYDASNRATGIPARFSGSGSGTDFTLTISSLEPEDFAVYYCQQHSNWMYTFGQGTKLEIK | koff [14]: 0.000161 s⁻¹; kon [14]: 254000 M⁻¹ s⁻¹; OD450 nm [21]: 0.06 OD450 nm; OD450 nm [22]: 2.31 OD450 nm; OD450 nm [23]: 3 OD450 nm; Kd [26]: 0.0709 nM; koff [26]: 2.4e-05 s⁻¹; kon [26]: 240000 M⁻¹ s⁻¹; OD450 nm [24]: 1.84 OD450 nm; OD450 nm [25]: 3.01 OD450 nm
4 | 3.12 | 0.15 | 0.08 | 2.25 | 0.06 | 2.91 | 2.31 | 3.07 | 1.32 | 1.56 | 2.19 | 1.31 | 0.94 | 2.69 | 0.06 | 0.07 | 1.86 | 2.27 | 0.07 | 0.06 | 152G2F7, fully human anti-PCSK9 antibody (antibody, human IgG1, V domains shown) VH: EVQLVESGGGLVQPGGSLRLSCAASEFTFGGYWMTWVRQAPGKGLEWVANIKQDGSEKYYVDSVKGRFTISRDNAKNSLYLHMNSLRAEDTAVYYCARDRTTMIRGVSLYYYYYGMDVWGQGTAVTVSS VL: EIVLTQSPATLSLSPGERATLSCRASQSVSSYLAWYQQKPGQAPRLLIYDASNRATGIPARFSGSGSGTDFTLTISSLEPEDFAVYYCQQRSNWPLTFGGGTKVEIK | koff [14]: 0.000453 s⁻¹; kon [14]: 168000 M⁻¹ s⁻¹; OD450 nm [21]: 0.06 OD450 nm; OD450 nm [22]: 2.29 OD450 nm; OD450 nm [23]: 2.97 OD450 nm; OD450 nm [24]: 0.26 OD450 nm; OD450 nm [25]: 2.89 OD450 nm
